This note sets out measurements from PMC6333830.

Bounds are passed on as bounds.

The target of assay [1] is KRAS4B GTPase domain (residues 1-173, C118S), un-phosphorylated (human) (UniProt P01116).
Assay [2] has as its target Src-phosphorylated 15N-KRAS (residues 1-173, C118S), not separated (human) (UniProt P01116).
Assay [3] has as its target KRAS4B GTPase domain (residues 1-173, C118S), un-phosphorylated (human) (UniProt P01116). The source holds these as a separate data set.
Assay [4] addresses Src-phosphorylated 15N-KRAS (residues 1-173, C118S), not separated (human) (UniProt P01116). The source holds these as a separate data set.

Regarding “GAP domain of human RASA1 (residues 715-1074) (domain or fragment)”, in assay [1], the acceleration of the rate of GTP hydrolysis of KRAS by the RASA1 GAP domain at a 1:3000 molar ratio, real-time NMR is greater than 300%. For the same substance, the increase of the rate of GTP hydrolysis of pKRAS by the RASA1 GAP domain at a 1:3000 molar ratio, real-time NMR in assay [2] was less than 20%.
Regarding “catalytic domain of Son of Sevenless 1 (SOS^cat, residues 564-1049) (from UniProt Q07889 564-1049) (domain or fragment)”, the fold acceleration of nucleotide exchange (GDP to GTPγS) of KRAS by SOS^cat at a ratio of 1:600, real-time NMR in assay [3] turned out to be 17 fold. Besides, the fold acceleration of nucleotide exchange (GDP to GTPγS) of pKRAS by SOS^cat at a ratio of 1:600, real-time NMR in assay [4] is less than 3 fold.
